In article PMC3861047, “Role of Tomato Lipoxygenase D in Wound-Induced Jasmonate Biosynthesis and Plant Immunity to Insect Herbivores”:

Molecular target: MBP-SlMYC2 (Solanum lycopersicum, UniProt A0A3Q7HRZ6 1-689)
Test: EMSA; LightShift Chemiluminescent EMSA kit (Thermo Scientific), acrylamide gel; buffer, salt, pH and temperature not given
Conditions: protein: recombinant; tags: N-terminal MBP (pMAL-c2); chain copies: 2; label: biotin (3' end per Methods); blunt

MBP-SlMYC2, sequence (A0A3Q7HRZ6 whole entry): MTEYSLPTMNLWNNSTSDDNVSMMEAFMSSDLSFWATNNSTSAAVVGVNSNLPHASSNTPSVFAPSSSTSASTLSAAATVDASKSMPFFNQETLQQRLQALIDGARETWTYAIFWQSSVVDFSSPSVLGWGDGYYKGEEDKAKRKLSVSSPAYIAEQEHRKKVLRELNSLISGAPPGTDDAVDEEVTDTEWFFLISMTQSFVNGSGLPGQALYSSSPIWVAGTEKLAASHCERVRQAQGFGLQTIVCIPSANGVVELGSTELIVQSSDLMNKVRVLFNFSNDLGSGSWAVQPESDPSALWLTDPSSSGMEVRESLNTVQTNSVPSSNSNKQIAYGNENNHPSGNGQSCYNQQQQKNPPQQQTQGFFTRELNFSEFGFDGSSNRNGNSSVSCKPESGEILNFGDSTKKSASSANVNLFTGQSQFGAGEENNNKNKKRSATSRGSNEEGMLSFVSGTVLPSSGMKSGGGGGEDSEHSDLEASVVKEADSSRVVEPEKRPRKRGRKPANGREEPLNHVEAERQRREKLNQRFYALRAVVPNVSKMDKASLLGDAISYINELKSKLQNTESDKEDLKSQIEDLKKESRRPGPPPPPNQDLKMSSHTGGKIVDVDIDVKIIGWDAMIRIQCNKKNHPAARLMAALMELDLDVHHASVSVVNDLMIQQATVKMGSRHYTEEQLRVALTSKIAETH

B1: TomLoxDpro probe-369 (dsDNA)
DNA 1: TCGGTTTGACTAAATTCCACCATGTGTAAAGCTTGCACTAAAATGAAACC
DNA 2: GGTTTCATTTTAGTGCAAGCTTTACACATGGTGGAATTTAGTCAAACCGA
- binding result: binds
